Measurements published in PMC7447978, “The ASC-1 Complex Disassembles Collided Ribosomes” (Molecular Cell, 2020).

B2: ASCC2 with a C-terminal FLAG tag (natural protein, human, UniProt Q9H1I8 1-757, looked up)
chain: MPALPLDQLQITHKDPKTGKLRTSPALHPEQKADRYFVLYKPPPKDNIPALVEEYLERATFVANDLDWLLALPHDKFWCQVIFDETLQKCLDSYLRYVPRKFDEGVASAPEVVDMQKRLHRSVFLTFLRMSTHKESKDHFISPSAFGEILYNNFLFDIPKILDLCVLFGKGNSPLLQKMIGNIFTQQPSYYSDLDETLPTILQVFSNILQHCGLQGDGANTTPQKLEERGRLTPSDMPLLELKDIVLYLCDTCTTLWAFLDIFPLACQTFQKHDFCYRLASFYEAAIPEMESAIKKRRLEDSKLLGDLWQRLSHSRKKLMEIFHIILNQICLLPILESSCDNIQGFIEEFLQIFSSLLQEKRFLRDYDALFPVAEDISLLQQASSVLDETRTAYILQAVESAWEGVDRRKATDAKDPSVIEEPNGEPNGVTVTAEAVSQASSHPENSEEEECMGAAAAVGPAMCGVELDSLISQVKDLLPDLGEGFILACLEYYHYDPEQVINNILEERLAPTLSQLDRNLDREMKPDPTPLLTSRHNVFQNDEFDVFSRDSVDLSRVHKGKSTRKEENTRSLLNDKRAVAAQRQRYEQYSVVVEEVPLQPGESLPYHSVYYEDEYDDTYDGNQVGANDADSDDELISRRPFTIPQVLRTKVPREGQEEDDDDEEDDADEEAPKPDHFVQDPAVLREKAEARRMAFLAKKGYRHDSSTAVAGSPRGHGQSRETTQERRKKEANKATRANHNRRTMADRKRSKGMIPS
notes: ASCC2, human, subunit of the ASC-1 complex (ASCC); Cloned with primers from the start codon to the last codons before the FLAG tag and stop; Plasmid pUCDM-ASCC2-FLAG-TRIP4; also called ASCC2-FLAG; source: Sf21 insect cells, baculovirus, co-expressed with the other ASCC subunits; purified (NiNTA, anti-FLAG M2, heparin Sepharose); not shown: FLAG, C-terminal, kept

Key:
[1] = biological target: T1, ASCC1 with a C-terminal 8-histidine tag (human, UniProt Q8N9N2-2 1-357); assay: tandem affinity co-purification (NiNTA, anti-FLAG M2, heparin Sepharose); four subunits co-expressed in Sf21 insect cells; lysate bound to NiNTA through ASCC1-8His (washed at 300 mM NaCl), the eluate bound to anti-FLAG M2 resin through ASCC2-FLAG and eluted with FLAG peptide, then heparin Sepharose; elution fractions shown on a gel; 4°C, 20 mM Tris-HCl 8.0, 10% glycerol; settings: partners not purified
T1 construct: ASCC1, human, subunit of the ASC-1 complex (ASCC); Plasmid pFL-ASCC1-8His-ASCC3, fused by Cre with pUCDM-ASCC2-FLAG-TRIP4; The isoform is inferred from the printed reverse primer; also called ASCC1-8His; source: Sf21 insect cells, baculovirus, co-expressed with the other ASCC subunits; purified (NiNTA, anti-FLAG M2, heparin Sepharose); not shown: His8, C-terminal, kept
T1 sequence (looked up): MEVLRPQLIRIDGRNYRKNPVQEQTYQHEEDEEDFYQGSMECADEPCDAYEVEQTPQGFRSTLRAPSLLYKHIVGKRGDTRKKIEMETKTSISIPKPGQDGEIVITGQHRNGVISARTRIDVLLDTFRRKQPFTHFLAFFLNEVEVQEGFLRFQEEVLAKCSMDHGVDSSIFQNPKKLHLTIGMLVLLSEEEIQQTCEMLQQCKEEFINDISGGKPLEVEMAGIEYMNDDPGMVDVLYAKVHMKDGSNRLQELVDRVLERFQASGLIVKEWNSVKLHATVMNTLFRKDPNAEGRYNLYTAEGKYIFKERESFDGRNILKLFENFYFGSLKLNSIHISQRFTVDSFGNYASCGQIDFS

[2] = biological target: B2; assay: as above; settings: partners not purified

B1: ASC-1 (also known as TRIP4), untagged (natural protein, human, UniProt Q15650 1-581, looked up)
chain: MAVAGAVSGEPLVHWCTQQLRKTFGLDVSEEIIQYVLSIESAEEIREYVTDLLQGNEGKKGQFIEELITKWQKNDQELISDPLQQCFKKDEILDGQKSGDHLKRGRKKGRNRQEVPAFTEPDTTAEVKTPFDLAKAQENSNSVKKKTKFVNLYTREGQDRLAVLLPGRHPCDCLGQKHKLINNCLICGRIVCEQEGSGPCLFCGTLVCTHEEQDILQRDSNKSQKLLKKLMSGVENSGKVDISTKDLLPHQELRIKSGLEKAIKHKDKLLEFDRTSIRRTQVIDDESDYFASDSNQWLSKLERETLQKREEELRELRHASRLSKKVTIDFAGRKILEEENSLAEYHSRLDETIQAIANGTLNQPLTKLDRSSEEPLGVLVNPNMYQSPPQWVDHTGAASQKKAFRSSGFGLEFNSFQHQLRIQDQEFQEGFDGGWCLSVHQPWASLLVRGIKRVEGRSWYTPHRGRLWIAATAKKPSPQEVSELQATYRLLRGKDVEFPNDYPSGCLLGCVDLIDCLSQKQFKEQFPDISQESDSPFVFICKNPQEMVVKFPIKGNPKIWKLDSKIHQGAKKGLMKQNKAV
notes: ASC-1 (TRIP4), human, subunit of the ASC-1 complex (ASCC); Untagged, cloned with primers from the start codon to the stop codon; Plasmid pUCDM-ASCC2-FLAG-TRIP4; source: Sf21 insect cells, baculovirus, co-expressed with the other ASCC subunits; purified (NiNTA, anti-FLAG M2, heparin Sepharose)
- stoichiometry N [1]: ~1
- stoichiometry N [2]: ~1

Binder: B2
- stoichiometry N [1]: ~1
